Measured values taken from US20060039859A1.
Square brackets hold non-standard residues; d marks the D form. Ends that are not written are not given here.

Target: Aβ1-40 fibrils (Homo sapiens (Human)) (UniProt P05067)
Assay: saturation radioligand binding to Aβ fibrils in PBS, RT 90 min, Centricon 100 kDa filtration

Chain of Aβ1-40 fibrils (Homo sapiens (Human)) (P05067 672-711 limits assumed): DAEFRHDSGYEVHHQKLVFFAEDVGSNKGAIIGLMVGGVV

B1: 99mTc-peptide (technetium-99m-labeled BBB permeant Aβ-targeted peptide KKLVFFAεKGC) (peptide)
peptide: [dK][dK][dL][dV][dF][dF][dA]KG[dC]
modifications: not fully specified (residue 8); printed as KKLVFFAεKGC; also: 99mTc chelated by εKGC (N3S core)
- Kd: 352 nM
